Source: paper PMC4043945, “Biochemical and Molecular Characterization of Barley Plastidial ADP-Glucose Transporter (HvBT1)” (PLoS ONE, 2014)

What was measured:
[1] = substrate: Nc1ncnc2c1ncn2[C@@H]1O[C@H](COP(=O)(O)OP(=O)(O)O)[C@@H](O)[C@H]1O; test: radiolabelled uptake (Michaelis-Menten) in intact E. coli cells expressing HvBT1; also counter-exchange and reduction of ADP-Glc uptake; type: cell-based, Hordeum vulgare; settings: counter-exchange substrate with ADP-glucose
[2] = substrate: Nc1ncnc2c1ncn2[C@@H]1O[C@H](COP(=O)(O)OP(=O)(O)O[C@H]2O[C@H](CO)[C@@H](O)[C@H](O)[C@H]2O)[C@@H](O)[C@H]1O; test: radiolabelled uptake (Michaelis-Menten) in intact E. coli cells expressing HvBT1; empty-plasmid control subtracted; type: cell-based, Hordeum vulgare

B1: HvBT1 (barley plastidial ADP-glucose transporter) (Hordeum vulgare subsp. vulgare) (protein)
chain: MAAAMAATTMVTKNNGGSLAMDKKNWFFRPAPEVAFSWSSQPESRSLEFPRRALFASVGLSLSHDGKARPADDVAHQLAAAGDAGVQQAQKAKKAKKQQLGLRKVRVKIGNPHLRRLVSGAIAGAVSRTFVAPLETIRTHLMVGSSGADSMGGVFRWIMRTEGWPGLFRGNAVNVLRVAPSKAIEHFTYDTAKKYLTPEAGEPAKVPIPTPLVAGALAGVASTLCTYPMELVKTRLTIEKDVYDNLLHAFVKIVRDEGPGELYRGLAPSLIGVVPYAAANFYAYETLRGAYRRASGKEEVGNVPTLLIGSAAGAIASTATFPLEVARKQMQVGAVGGRQVYKNVLHAMYCILNKEGAAGLYRGLGPSCIKLMPAAGISFMCYEACKKILVDDKQDGEPQDQEETETGHTQGQAAPKSPNANGDRP
notes: codon-optimized ORF in pET16b with N-terminal His-tag, expressed in E. coli C43 (DE3)
Km [1]: 334.7 µM | Km [2]: 614.5 µM
